Laboratory results reported in patent publication US11129879B2, “Methods for the treatment of neurological disorders and diseases using FNDC5” (Dana-Farber Cancer Institute, Inc., priority 2013, dated 2021).

What was measured:
primary cortical neurons [1] = experiment: gene expression by qPCR in cultured primary cortical neurons; assay type: cell-based, mouse; conditions: for Fndc5 gene expression: 1 μM; for Fndc5 gene expression / Fndc5 mRNA expression: DIV 7, vs vehicle; for Fndc5 mRNA expression: 100 ng/ml
Protocol: (§1) Primary cortical and hippocampal neurons were isolated as described in great detail previously in Bartlett and Banker (1984) J. Neurosci. 4, 1944-1953. Briefly, cortices and hippocampi were dissected from E16-E18 embryos, dissociated with trypsin (Sigma) and DNAse (Roche), and plated on poly-L-lysine-coated (Sigma) plates. Dissociated neurons were cultured in Neurobasal Media supplemented with B27, GlutaMAX™ (Life Technologies), and Penicillin-Streptomycin (Cellgro).
(§2) Cells or tissues were lysed and homogenized in TRIzol (Invitrogen). Total RNA was subsequently isolated using the RNeasy Mini or Micro Kit (Qiagen). First-strand cDNA was generated using the High Capacity cDNA Reverse Transcription Kit (Life Technologies), and qPCR was performed using SYBR Green Master Mix in a 7900HT Real-Time PCR system (Applied Biosystems). mRNA quantities were normalized to Rsp18 after determination by the comparative Ct method (Schmittgen and Livak (2008) Nat. Protocols 3, 1101-1108).
Primary cortical neurons were transduced at the indicated time-points and were harvested 48 hrs later for RNA isolation. For knockdown studies, primary cortical neurons were transduced with viral supernatants from HEK293T cells transfected with pLKO.1 vector (TRC) containing the specified shRNAs at the indicated time-points.

substantia nigra = conditions: 4 mg/kg/d, harvested 2 days later, microarray, vs untreated mice; cited from earlier work
SH-SSY5Y neurons = experiment: Fndc5 gene expression by qPCR in SH-SSY5Y neurons; assay type: cell-based, human; conditions: treatment with the neurotoxin
Protocol: The cells were differentiated with retinoic acid. Gene expression was assessed with qPCR.

[2] = test system: primary hippocampal neurons; experiment: gene expression by qPCR in cultured primary hippocampal neurons; assay type: cell-based, mouse
Protocol: At the indicated days in vitro (DIV) mRNA was prepared and gene expression was assessed by qPCR. Data are shown as mRNA levels relative to Rsp18 expression, expressed as mean±SEM. *P<0.05 compared to DIV 1 control group. […] Forty-eight hours later mRNA was prepared and gene expression was assessed by qPCR. Data are shown as mRNA levels relative to Rsp18 expression, expressed as mean±SEM. *P<0.05 compared to corresponding GFP expressing control group. […] Four days later mRNA was prepared and gene expression was assessed by qPCR. Data are shown as mRNA levels relative to Rsp18 expression, expressed as mean±SEM. *P<0.05 compared to corresponding shLuc expressing control group. […] Data are shown as mRNA levels relative to Rsp18 expression, expressed as mean±SEM. *P<0.05 compared to vehicle only group. […] Four days later mRNA was prepared and gene expression was assessed by qPCR. Data are shown as mRNA levels relative to Rsp18 expression, expressed as mean±SEM. *P<0.05 compared to corresponding shLuc expressing control group. […] Data are shown as mRNA levels relative to Rsp18 expression, expressed as mean±SEM. *P<0.05 compared to vehicle only group.
as §1
as §2, with “Total RNA was subsequently isolated using the RNeasy Mini or Micro Kit (Qiagen).” left out

primary cortical neurons [3] = experiment: irisin stimulation of silenced primary cortical neurons, mRNA levels of genes of interest; assay type: cell-based, mouse; conditions: 1 ug/mL (Enzo) at DIV7 after silencing with 1 uM TTX and 100 uM APV; time course, p<0.05 from baseline
Protocol: Primary cortical neurons were silenced at DIV6 with 1 uM TTX and 100 uM APV overnight. The neurons were then stimulated at DIV7 using irisin (1 ug/mL; Enzo; Product No. ADI-908-307-0010). […] In a separate analysis, primary cortical neurons were silenced at DIV6 with 1 uM TTX and 10 uM MK801 overnight. […] In still a separate analysis, primary cortical neurons were silenced at DIV6 with 1 uM TTX and 100 uM APS overnight. The neurons were then stimulated at […] using irisin (1 ug/mL; Enzo; Product No. ADI-908-307-0010). […] In yet another separate analysis, primary cortical neurons were silenced at DIV7 with 1 uM TTX and 100 uM APS overnight. The neurons were then stimulated at DIV8 using 1 ug/mL of irisin from one of two vendors (i.e., either from Enzo, Product No. ADI-908-307-0010, or from Phoenix, Product No. 067-29A).

primary cortical neurons [4] = experiment: CellTiter-Glo Luminescent Cell Viability Assay of cultured neurons; assay type: cell-based, mouse; conditions: treatment during in vitro culture for 7 days, relative to hFc
Protocol: Cell viability of cultured neurons was assessed using CellTiter-Glo® Luminescent Cell Viability Assay (Promega, Madison, Wis.) according to the manufacturer's instructions. Luminescence of cell lysates was measured using the FLUOstar Omega plate reader (BMG LABTECH, Offenburg, Germany).

primary cortical neurons [5] = experiment: binding of irisinFc to PFA-fixed cultured neurons, detected by secondary anti-human Fc fluorescent antibody; set-up: species or system mouse; conditions: PFA-fixed cultures, vs humanFc
Protocol: PFA-fixed cultured primary cortical neurons were incubated with either irisin-Fc or humanFc as control and binding of irisinFc was detected by a secondary anti-human Fc fluorescent antibody. IrisinFc clearly binds to neurons in culture, especially given that the observed pattern of the binding and the fact that the cultures are highly enriched in neurons (>90%).

Wild type C56/B16 mice = experiment: peripheral injections of irisin-Fc, Bdnf gene expression by qPCR; assay type: in vivo, mouse; conditions: 5 mg/kg i.p., RNA 10d later, vs humanFc
Protocol: Wild type C56/B16 mice were injected with either irisinFc or humanFc (5 mg/kg) i.p. Total RNA for qPCR was harvested 10d later. Results are shown as mean+SEM, n=6, *P<0.05.

[6] = test system: human embryonic stem cells differentiated into motor neurons (eMN); experiment: human embryonic stem cells differentiated into motor neurons (eMN), gene expression by qPCR; assay type: cell-based
Protocol: Gene expression was assessed with qPCR.
Growth of human embryonic stem cells, differentiation of human embryonic stem cells into motor neurons, and glial co-culture were performed as described in DiGiorgio et al. (2008) Cell Stem Cell 3:637-648.

[7] = 1 ug/ml at DIV 5 and 6, vs vehicle
[8] = 5× concentrated conditioned media from CHO cell lines, RNA next day, vs hFc

Molecule: CCN(CC)c1ccc(/C=N/NC(=O)c2ccc(O)cc2)cc1 [DY131, reference compound]
- Fndc5 gene expression (primary cortical neurons [1]; overnight): had no effect on Fndc5 gene expression

Molecule: Cc1cc(SCc2sc(-c3ccc(C(F)(F)F)c(F)c3)nc2C)ccc1OCC(=O)O [GW0742, reference compound]
- Fndc5 gene expression (primary cortical neurons [1]; overnight): no effect on Fndc5 gene expression

Molecule: CC(C)(Sc1ccc(CCN(CCCCC2CCCCC2)C(=O)NC2CCCCC2)cc1)C(=O)O [GW7647, reference compound]
- Fndc5 gene expression (primary cortical neurons [1]; overnight): no effect on Fndc5 gene expression

Molecule: COC(=O)[C@@]1(O)C[C@H]2O[C@]1(C)n1c3ccccc3c3c4c(c5c6ccccc6n2c5c31)C(=O)NC4 [K252a, reference compound]
- reduction of Fndc5 mRNA expression by BDNF (primary cortical neurons [1]; pre-incubation with 50 nM, then BDNF 100 ng/ml overnight): This effect was abolished

Molecule: CN1CC=C(c2ccccc2)CC1 [MPTP, 1-methyl-4-phenyl-1,2,3,6-tetrahydropyridine]
- Fndc5 expression in substantia nigra (substantia nigra): significantly lower Fndc5 expression

Molecule: COc1cc(/C=C(\C#N)C(=O)Nc2nnc(C(F)(F)F)s2)ccc1OCc1ccc(C(F)(F)F)cc1C(F)(F)F [XCT 790, reference compound]
- Fndc5 gene expression (primary cortical neurons [1]; overnight): significantly reduced Fndc5 gene expression

Molecule: C=C(C)[C@H]1Cc2c(ccc3c2O[C@@H]2COc4cc(OC)c(OC)cc4[C@@H]2C3=O)O1 [rotenone]
- Fndc5 gene expression (SH-SSY5Y neurons): reduces Fndc5 gene expression

Molecule: IGF-1: recombinant mouse insulin-like growth factor 1, R&D Systems
- Fndc5 mRNA expression (primary cortical neurons [1]; overnight): only BDNF stimulation significantly reduced

B1: recombinant irisin: commercially available recombinant irisin, secreted form of FNDC5 (Phoenix Pharmaceuticals; Enzo in b292) (protein, UniProt Q8NAU1 1-191, looked up)
Irisin: MQAARGGAGRPERPGRPGRGPERERERPPGAGAASPCAAPGLPAGGATIHPGSPSAWPPRARAALRLWLGCVCFALVQADSPSAPVNVTVRHLKANSAVVSWDVLEDEVVIGFAISQQKKDVRMLRFIQEVNTTTRSCALWDLEEDTEYIVHVQAISIQGQSPASEPVLFKTPREAEKMASKNKDEVTMKE
modifications: Irisin
- Bdnf gene expression [2, 7]: did not reach statistical significance
- gene program (Arc, cFos, Npas4, and Zif268) [2, 7]: induced a similar gene program
- changes in mRNA levels of genes of interest (primary cortical neurons [3]): many of the analyzed genes have statistically significant changes

B2: GDNF: recombinant human glial cell-derived neurotrophic factor, Sigma (protein, UniProt P39905 78-211, looked up)
Glial cell line-derived …: SPDKQMAVLPRRERNRQAAAANPENSRGKGRRGQRGKNRGCVLTAIHLNVTDLGLGYETKEELIFRYCSGSCDAAETTYDKILKNLSRNRRLVSDKVGQACCRPIAFDDDLSFLDDNLVYHILRKHSAKRCGCI
- Fndc5 mRNA expression (primary cortical neurons [1]; overnight): only BDNF stimulation significantly reduced

B3: CNTF: recombinant human ciliary neurotrophic factor, Sigma (protein, UniProt P26441 1-200, looked up)
Ciliary neurotrophic factor: MAFTEHSPLTPHRRDLCSRSIWLARKIRSDLTALTESYVKHQGLNKNINLDSADGMPVASTDQWSELTEAERLQENLQAYRTFHVLLARLLEDQQVHFTPTEGDFHQAIHTLLLQVAAFAYQIEELMILLEYKIPRNEADGMPINVGDGGLFEKKLWGLKVLQELSQWTVRSIHDLRFISSHQTGIPARGSHYIANNKKM
- Fndc5 mRNA expression (primary cortical neurons [1]; overnight): only BDNF stimulation significantly reduced

B4: irisinFc: Fc fusion of irisin (murine Fndc5 residues 29-140); amino acid sequence given in b228 (protein)
chain: DSPSAPVNVTVRHLKANSAVVSWDVLEDEVVIGFAISQQKKDVRMLRFIQEVNTTTRSCALWDLEEDTEYIVHVQAISIQGQSPASEPVLFKTPREAEKMASKNKDEVTMKEGGGGAGGGGVECPPCPAPPVAGPSVFLFPPKPKDTLMISRTPEVTCVVVDVSHEDPEVQFNWYVDGVEVHNAKTKPREEQFNSTFRVVSVLTVVHQDWLNGKEYKCKVSNKGLPAPIEKTISKTKGQPREPQVYTLPPSREEMTKNQVSLTCLVKGFYPSDIAVEWESNGQPENNYKTTPPMLDSDGSFFLYSKLTVDKSRWQQGNVFSCSVMHEALHNHYTQKSLSLSPGK
modifications: /note=“Description of Artificial Sequence IrisinFc polypeptide”
- Bdnf expression (primary cortical neurons [1]; [8]): increased expression of Fndc5 and Bdnf
- Fndc5 expression (primary cortical neurons [1]; [8]): increased expression of Fndc5 and Bdnf
- cell viability (primary cortical neurons [4]): significantly increased cell viability
- binding to neurons (primary cortical neurons [5]): neurons bind irisinFc
- Bdnf expression in the cerebellum (Wild type C56/B16 mice): significant increase in Bdnf expression
- Bdnf expression in the sciatic nerve (Wild type C56/B16 mice): significant increase in Bdnf expression
- eMN synapse formation [6]: increases eMN synapse formation
- motor neuron differentiation of eMN [6]: promotes motor neuron differentiation

B5: BDNF: recombinant human brain-derived neurotrophic factor, PeproTech (protein)
chain: HSDPARRGELSVCDSISEWVTAADKKTAVDMSGGTVTVLEKVPVSKGQLKQYFYETKCNPMGYTKEGCRGIDKRHWNSQCRTTQSYVRALTMDSKKRIGWRFIRIDTSCVCTLTIKRGR
- Fndc5 mRNA expression (primary cortical neurons [1]; overnight): only BDNF stimulation significantly reduced Fndc5 mRNA expression
- lowest concentration that significantly reduced Fndc5 gene expression (primary cortical neurons [1]; overnight, 0.1-100 ng/ml tested, dose-response observed): 1 ng/mL
- Fndc5 gene expression ([2]; 100 ng/ml, overnight, DIV 7, vs vehicle): reduced Fndc5 gene expression

B6: NGF: recombinant mouse nerve growth factor, EMD Millipore (protein, UniProt P01139 122-241, looked up)
Beta-nerve growth factor: SSTHPVFHMGEFSVCDSVSVWVGDKTTATDIKGKEVTVLAEVNINNSVFRQYFFETKCRASNPVESGCRGIDSKHWNSYCTTTHTFVKALTTDEKQAAWRFIRIDTACVCVLSRKATRRG
- Fndc5 mRNA expression (primary cortical neurons [1]; overnight): only BDNF stimulation significantly reduced
